Measured values from US20070015230A1 (AMERICAN NATIONAL RED CROSS, published 2007).

Biological target: T1, Human CRP (Novagen) (human, UniProt P02741 19-224)
T1 construct: also called C-reactive protein
T1 sequence (looked up): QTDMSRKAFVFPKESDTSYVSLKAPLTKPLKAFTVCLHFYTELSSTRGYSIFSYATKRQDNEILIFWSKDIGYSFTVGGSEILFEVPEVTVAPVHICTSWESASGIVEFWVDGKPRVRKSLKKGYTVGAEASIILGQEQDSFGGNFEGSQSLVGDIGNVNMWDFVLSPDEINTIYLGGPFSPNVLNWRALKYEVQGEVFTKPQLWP
Assay: Bead Blot of library beads loaded from CRP-spiked whole blood, detected with an anti-CRP antibody, confirmed by re-incubation

GNQKWG (also called CRP ligand)
binding result: binds
